{"source": "paper PMC4183563", "about": "“Protospacer Adjacent Motif (PAM)-Distal Sequences Engage CRISPR Cas9 DNA Target Cleavage”", "binders": {"B1": {"name": "p53 [Exon 7] 55 bp duplex + cr20 + tracrRNA (mixed)", "DNA 1": "TCCACTACAAGTACATGTGTAATAGCTCCTGCATGGGGGGCATGAACCGCCGACC", "DNA 2": "GGTCGGCGGTTCATGCCCCCCATGCAGGAGCTATTACACATGTACTTGTAGTGGA"}, "B2": {"name": "OT#7 probe + cr20 + tracrRNA (mixed)", "DNA 1": "TCCACTACAAGTACATGTGGAACAGCTCCTGCATGGGGGGCATGAACCGCCGACC", "DNA 2": "GGTCGGCGGTTCATGCCCCCCATGCAGGAGCTGTTCCACATGTACTTGTAGTGGA"}}, "key": {"Cas9 (wild type) [1]": {"target": "T1, Cas9 (wild type) (Streptococcus pyogenes, UniProt Q99ZW2 1-1368)", "T1 sequence (Q99ZW2 whole entry)": "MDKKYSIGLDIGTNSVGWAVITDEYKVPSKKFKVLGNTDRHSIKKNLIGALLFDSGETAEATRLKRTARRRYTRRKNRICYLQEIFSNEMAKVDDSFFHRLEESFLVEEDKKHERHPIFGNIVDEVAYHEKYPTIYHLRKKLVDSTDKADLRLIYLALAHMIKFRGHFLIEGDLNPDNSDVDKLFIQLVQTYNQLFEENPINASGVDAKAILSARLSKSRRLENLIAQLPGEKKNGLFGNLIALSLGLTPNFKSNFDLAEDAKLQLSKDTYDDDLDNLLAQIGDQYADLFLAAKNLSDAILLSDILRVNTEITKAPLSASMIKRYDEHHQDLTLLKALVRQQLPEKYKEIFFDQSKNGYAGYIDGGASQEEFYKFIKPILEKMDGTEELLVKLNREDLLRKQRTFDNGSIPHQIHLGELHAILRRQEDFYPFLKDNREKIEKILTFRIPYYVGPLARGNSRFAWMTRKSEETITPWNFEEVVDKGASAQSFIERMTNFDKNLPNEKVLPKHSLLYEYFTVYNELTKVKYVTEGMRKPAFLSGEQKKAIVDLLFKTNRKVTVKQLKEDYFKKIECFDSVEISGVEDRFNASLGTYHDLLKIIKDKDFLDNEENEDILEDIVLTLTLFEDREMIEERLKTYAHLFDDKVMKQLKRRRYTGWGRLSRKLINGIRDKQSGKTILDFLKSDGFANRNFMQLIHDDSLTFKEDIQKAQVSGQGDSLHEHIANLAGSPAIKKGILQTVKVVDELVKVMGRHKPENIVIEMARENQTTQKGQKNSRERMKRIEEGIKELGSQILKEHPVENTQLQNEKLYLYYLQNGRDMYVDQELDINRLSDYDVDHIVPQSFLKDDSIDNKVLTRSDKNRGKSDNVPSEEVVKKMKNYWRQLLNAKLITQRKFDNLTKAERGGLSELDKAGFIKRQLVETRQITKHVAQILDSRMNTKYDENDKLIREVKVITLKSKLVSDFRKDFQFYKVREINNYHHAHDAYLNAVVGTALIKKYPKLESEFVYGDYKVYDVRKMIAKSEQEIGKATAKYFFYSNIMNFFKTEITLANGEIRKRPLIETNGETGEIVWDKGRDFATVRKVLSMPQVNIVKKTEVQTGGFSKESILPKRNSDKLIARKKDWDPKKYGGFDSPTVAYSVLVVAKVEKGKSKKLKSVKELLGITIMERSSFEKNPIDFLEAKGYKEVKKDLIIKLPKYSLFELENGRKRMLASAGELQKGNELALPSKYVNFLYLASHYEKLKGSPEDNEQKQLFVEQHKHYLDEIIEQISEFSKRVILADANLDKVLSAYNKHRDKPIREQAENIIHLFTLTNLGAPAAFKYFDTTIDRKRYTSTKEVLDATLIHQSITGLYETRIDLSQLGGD", "assay": "EMSA; 20 nM crRNA cr20, 20 nM tracrRNA; EMSA: 1 nM 32P-dsDNA, 10 nM Cas9 (or titrated), 20 nM tracrRNA, 20 nM crRNA, 2.5 ug/ml heparin, 5% native PAGE; buffer, pH and temperature as in cited ref 11 (not given)", "settings": "protein: recombinant; label: 32P on DNA; duplex DNA; crRNA:tracrRNA guide"}, "Cas9 (wild type) [2]": {"target": "T1, Cas9 (wild type)", "assay": "EMSA; cr20 + tracrRNA; EMSA: 1 nM 32P-dsDNA, 10 nM Cas9 (or titrated), 20 nM tracrRNA, 20 nM crRNA, 2.5 ug/ml heparin, 5% native PAGE; buffer, pH and temperature as in cited ref 11 (not given)", "settings": "protein: recombinant; label: 32P on DNA; duplex DNA; crRNA:tracrRNA guide"}}, "data": [{"binder": "B1", "values": [{"measurement": "Kd", "setting": "Cas9 (wild type) [1]", "result": "1.5 ± 0.1", "unit": "nM"}]}, {"binder": "B2", "values": [{"measurement": "binding result", "setting": "Cas9 (wild type) [2]", "result": "binds"}]}]}
